Data published in patent US20240067728A1 (BIO THERA SOLUTIONS, published 2024).
Positions count from the first letter of the chain named. In names and notes the source's numbering stands. Like-named read-outs stand apart in the source and are kept apart here. Each block holds one binder with its values, some of them ahead of it.

Legend:
CD47-His antigen [1] = target: T1, CD47-His antigen (human, UniProt Q08722 19-139); assay: SPR (Biacore), method of Example 5; cell carries an unexplained mark ^
T1 construct: Human CD47 ECD with C-terminal 8xHIS tag, expressed in HEK293F; also called hCD47-His; human CD47-His

CD47-His antigen [2] = target: T1, CD47-His antigen; assay: SPR (Biacore), method of Example 5, 1:1 Binding fit
PD-L1-His antigen [3] = target: T2, PD-L1-His antigen (human, UniProt Q9NZQ7 19-238); assay: as above
T2 construct: Human PD-L1 ECD with C-terminal 8xHIS tag, expressed in HEK293F; also called hPDL1-His; human PD-L1-His

[4] = target: T3, human PD-L1 on PD-L1-CHO cells (human, UniProt Q9NZQ7 19-290); assay: FACS on PD-L1-CHO cells, PE-labeled anti-human Fc secondary antibody; MFI(Mean) against Con(nM)
T3 construct: whole, on cells; also called CHO cells overexpressing human PD-L1; PD-L1 expressed on the cell surface

CD47-His antigen [5] = target: T1, CD47-His antigen; assay: SPR (Biacore), method of Example 5, Two State Reaction fit
[6] = target: T4, PD-L1 on CHO-PD-L1 cells (Promega PD-1/PD-L1 Blockade Bioassay) (UniProt Q9NZQ7 19-290, limits assumed); assay: cell-based or functional assay
[7] = target: T5, human CD47 on CD47-CHO cells (human, UniProt Q08722 19-323); assay: FACS on CD47-CHO cells, PE-labeled anti-human Fc secondary antibody; MFI(Mean) against Con(nM)
T5 construct: whole, on cells; also called CHO cells overexpressing human CD47; CD47 expressed on the cell surface

[8] = target: T4, PD-L1 on CHO-PD-L1 cells (Promega …); assay: cell-based or functional assay; remark: listed apart in the source
[9] = target: T3, human PD-L1 on PD-L1-CHO cells; assay: FACS on PD-L1-CHO cells, PE-labeled anti-human Fc secondary antibody; MFI(Mean) against Con(nM); remark: listed apart in the source
[10] = target: T4, PD-L1 on CHO-PD-L1 cells (Promega …); assay: cell-based or functional assay; remark: listed apart in the source
PD-L1-His antigen [11] = target: T2, PD-L1-His antigen; assay: SPR (Biacore T200), PD-L1-His immobilised on chip, antibody as mobile phase, 1:1 Binding fit
[12] = target: T5, human CD47 on CD47-CHO cells; assay: FACS on CD47-CHO cells, PE-labeled anti-human Fc secondary antibody; MFI(Mean) against Con(nM); remark: listed apart in the source
CD47-His antigen [13] = target: T1, CD47-His antigen; assay: SPR (Biacore), method of Example 5, 1:1 Binding fit; remark: listed apart in the source
[14] = target: T6, CD47 on human T lymphocyte leukemia Jurkat cells (human, UniProt Q08722 19-323); assay: FACS on Jurkat cells, PE-labeled anti-human Fc secondary antibody; MFI(Mean) against Con(nM)
T6 construct: whole, on cells; also called tumor cells

[15] = target: T7, CD47 on human red blood cells (human, UniProt Q08722 19-323); assay: FACS on human red blood cells, PE-labeled anti-human Fc secondary antibody; MFI(Mean) against Con(nM)
T7 construct: whole, on cells; also called RBC

T4 sequence (Q9NZQ7 19-290 limits assumed): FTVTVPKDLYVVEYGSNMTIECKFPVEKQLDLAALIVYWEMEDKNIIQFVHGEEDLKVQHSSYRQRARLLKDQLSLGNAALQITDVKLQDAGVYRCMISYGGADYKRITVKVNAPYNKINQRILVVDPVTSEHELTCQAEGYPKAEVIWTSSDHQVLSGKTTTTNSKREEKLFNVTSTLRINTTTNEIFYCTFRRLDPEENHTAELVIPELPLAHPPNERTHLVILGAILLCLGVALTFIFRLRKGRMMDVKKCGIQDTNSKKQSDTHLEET
T3 sequence (Q9NZQ7 19-290): as the sequence (Q9NZQ7 19-290 limits assumed) above
T2 sequence (Q9NZQ7 other isoform, or with tags, fused parts or gaps limits assumed): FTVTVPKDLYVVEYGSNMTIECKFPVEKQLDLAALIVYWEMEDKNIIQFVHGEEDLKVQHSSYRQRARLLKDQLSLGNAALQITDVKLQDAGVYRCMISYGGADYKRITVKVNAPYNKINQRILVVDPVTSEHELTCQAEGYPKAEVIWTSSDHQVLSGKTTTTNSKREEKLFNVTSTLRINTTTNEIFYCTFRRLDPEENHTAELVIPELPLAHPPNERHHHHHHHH

B1: 47-R2-18 (antibody, human IgG1, kappa, V domains shown)
VH: QVQLQESGPGLVKPSETLSLTCTVSGGSLDNYYWSWIRQPPGKGLEWIGYIYYSGNTNYNPSLKSRVTISVDTSKNQFSLKLSSVTAADTAVYYCARGGRFLERYWGQGTLVTVSS
VL: EIVLTQSPSSVSASVGDRITITCRASQGIGSWLAWYQQKPGKAPSLLIYAASSLQSGVPSRFSGSGSGTDFTLTISSLQTEDVAVYYCQQYFSTPYTFGQGTKVDIKR
notes: Anti-CD47 monoclonal antibody, L12-6-VH with light chain R2-18
Kd (CD47-His antigen [1]): 0.312 nM

B3: BsAb-71-N297A (bispecific antibody, human IgG1, kappa, N297A)
heavy 1: EVQLVESGGGLVQPGGSLRLSCAASGFTFSDSWIHWVRQAPGKGLEWVGWISPYGGSTYYADSYRSRFTISADTSKNTAYLQMNSLRAEDTAVYYCARRHWPGGFDYWGQGTLVTVSSASTKGPSVFPLAPSSKSTSGGTAALGCLVKDYFPEPVTVSWNSGALTSGVHTFPAVLQSSGLYSLSSVVTVPSSSLGTQTYICNVNHKPSNTKVDKKVEPKSCDKTHTCPPCPAPELLGGPSVFLFPPKPKDTLMISRTPEVTCVVVDVSHEDPEVKFNWYVDGVEVHNAKTKPREEQYASTYRVVSVLTVLHQDWLNGKEYKCKVSNKALPAPIEKTISKAKGQPREPQVYTLPPCRDELTKNQVSLWCLVKGFYPSDIAVEWESNGQPENNYKTTPPVLDSDGSFFLYSKLTVDKSRWQQGNVFSCSVMHEALHNHYTQKSLSLSPGK
heavy 2: not shown
light: EIVLTQSPSSLSASVGDRVTITCLASQTIGTWLAWYQQKPGKSPQLLIYAASTLQSGVPSRFSGSGSGTDFTLTISSLQPEDVATYYCQQYYSTPRTFGQGTKVEIKRTVAAPSVFIFPPSDEQLKSGTASVVCLLNNFYPREAKVQWKVDNALQSGNSQESVTEQDSKDSTYSLSSTLTLSKADYEKHKVYACEVTHQGLSSPVTKSFNRGEC
notes: BsAb-71 with the N297A mutation in the Fc region; also called anti-PD-L1/CD47 bispecific antibody BsAb-71-N297A
EC50 (luciferase reporter, PD-1/PD-L1 blockade MOA assay; blocked partner: PD-1 on Jurkat-PD1 cells) [8]: 0.164 µg/mL | EC50 (read off the curve) [9]: ~0.5 nM

B5: 47-R2-89 (antibody, human IgG1, kappa, V domains shown)
VH: B1 VH
VL: DIQMTQSPSSLSASVGDRVTITCLASQTIGTWLAWYQQKPGKSPQLLIYAASSLQSGVPSRFSGSGSGTDFTLTISSLQPEDVATYYCQQYYSTPYTFGQGTKVDIKR
notes: Anti-CD47 monoclonal antibody, L12-6-VH with light chain R2-89
Kd (CD47-His antigen [1]): 0.361 nM

Second part, the binder after the results:

Kd (CD47-His antigen [2]): 28.4 nM | Kd (PD-L1-His antigen [3]): 0.223 nM | EC50 (read off the curve) [4]: ~0.8 nM | Kd (CD47-His antigen [5]): 4.77 nM | EC50 (luciferase reporter, PD-1/PD-L1 blockade MOA assay; blocked partner: PD-1 on Jurkat-PD1 cells) [6]: 0.295 µg/mL | EC50 (read off the curve) [7]: ~4 nM
B2: BsAb-47 (bispecific antibody, human IgG1, kappa)
heavy 1: not shown
heavy 2: not shown
light: B3 light
notes: Knob-into-hole IgG1-like bispecific with common light chain; first heavy chain is the anti-PD-L1 arm, second the anti-CD47 arm; also called anti-PD-L1/CD47 bispecific antibody BsAb-47

EC50 (luciferase reporter, PD-1/PD-L1 blockade MOA assay; blocked partner: PD-1 on Jurkat-PD1 cells) [10]: 0.382 µg/mL | EC50 (read off the curve) [10]: ~2 µg/mL | EC50 (luciferase reporter, PD-1/PD-L1 blockade MOA assay; blocked partner: PD-1 on Jurkat-PD1 cells) [8]: 0.087 µg/mL | EC50 (read off the curve) [9]: ~0.2 nM | Kd (PD-L1-His antigen [11]): 0.282 nM | EC50 (read off the curve) [4]: ~0.6 nM | EC50 (luciferase reporter, PD-1/PD-L1 blockade MOA assay; blocked partner: PD-1 on Jurkat-PD1 cells) [6]: 0.292 µg/mL
B4: L1-R2-4-71 (antibody, human IgG1, kappa, V domains shown)
VH: EVQLVESGGGLVQPGGSLRLSCAASGFTFSDSWIHWVRQAPGKGLEWVGWISPYGGSTYYADSYRSRFTISADTSKNTAYLQMNSLRAEDTAVYYCARRHWPGGFDYWGQGTLVTVSS
VL: B5 VL with D1E, Q3V, M4L, S53T, Y96R, D105E
notes: also called parental anti-PD-L1 antibody L1-R2-4-71

EC50 (read off the curve) [12]: ~0.9 nM | Kd (CD47-His antigen [13]): 3.29 nM | EC50 (read off the curve) [14]: ~0.7 nM | binding result [4]: no binding (tested: 10 nM) | EC50 (read off the curve) [7]: ~1 nM | EC50 (read off the curve) [15]: ~3 nM
B6: 47-R2-4 (antibody, human IgG1, kappa, V domains shown)
VH: B1 VH
VL: B5 VL with D1E, Q3V, M4L, S53T, Y96R, D105E
notes: Anti-CD47 monoclonal antibody, L12-6-VH with light chain R2-4; also called parental anti-CD47 antibody 47-R2-4
